Reference: US11672846B2, “Soluble bacterial and fungal proteins and methods and uses thereof in inhibiting and dispersing biofilm” (priority 2014, dated 2023)
Entries after “also recorded” stand apart in the source; their conditions may differ. Like-named read-outs stand apart in the source and are kept apart here.

Legend:
[1] = tested on: P. aeruginosa PAO1 pBADpsl; assay: Inhibition of Psl biofilm formation in static culture (crystal violet); assay type: cell-based, Pseudomonas aeruginosa
[2] = tested on: Psl biofilms of P. aeruginosa PAO1 pBADpsl; assay: Dispersal of pre-formed Psl biofilms (crystal violet); assay type: cell-based, Pseudomonas aeruginosa
[3] = purified protein
[4] = tested on: PNAG-overproducing E. coli biofilms; assay: Dispersal of pre-formed PNAG-dependent E. coli biofilms; conditions: for EC50: read-out: EC50 of degradation of pre-formed E. coli biofilm, 60 min, average starting OD595 of 0.5
Method: Bacterial cultures expressing Psl were inoculated as stated above and were grown at 37° C. overnight with shaking at 200 rpm. All cultures were diluted in 1:100 in LB and arabinose was added to a final concentration of 0.5% (w/v) to induce Psl biosynthesis. Media containing the Psl-producing cultures were supplemented with 200 μg/mL ampicillin and 100 μg/mL kanamycin. The cultures were incubated statically for 24 h at 26° C. to allow for biofilm formation. After incubation non-adherent cells and media were removed by washing the plate with deionized water three times. The wells were filled with 95 μL of 100 mM sodium HEPES buffer pH 7.0 followed by 5 μL of varying concentrations of each hydrolytic enzyme (2 nM-5 μM). Reactions were allowed to proceed for up to 60 min at 25° C. on a rotating nutator at which time, the reaction was quenched by washing the plates with deionized water. The wells were stained with 200 μL of 0.1% (w/v) crystal violet for 10 min, and washed with water three times. Crystal violet dye from Psi cultures was solubilized in 100 μL of 95% ethanol for 10 min with rotation, after which time the absorbance was measured at 595 nm using a SpectraMax M2 from Molecular Devices (Sunnyvale, Calif.). The amount of biofilm is proportional to the absorbance from staining with crystal violet (Merritt et al 2005). All reactions were completed in at least triplicate and 100 mM sodium HEPES buffer pH 7.0 was used as an untreated control. The addition of 2.5 mg/mL kanamycin to culture prior to biofilm formation was used as a positive control as no cell growth occurs.
PNAG-overproducing E. coli was grown at 37° C. overnight in LB broth supplement with 200 ug/mL ampicillin and 100 ug/mL kanamycin with shaking at 200 rpm. An E. coli μgaABCD knockout strain was used as a non-biofilm forming control for background straining.

[5] = tested on: P. aeruginosa PAO1 ΔwspFΔpslpBADpel; assay: Inhibition of Pel biofilm formation in static culture (crystal violet); conditions: specificity control
[6] = tested on: pre-formed A. fumigatus GAG biofilms; assay type: cell-based; conditions: for dispersal of pre-formed GAG biofilm (in words): crystal violet
[7] = Reducing sugar assay on dPNAG; assay type: biochemical, S. aureus
Method: Isolated dPNAG from S. aureus strain MN8m was solubilized in 6 N HCl at ˜10 mg/mL. 10 N NaOH was used to titrate the re-suspension until neutrality was reached, ˜pH 7-8. In a 50 μL reaction, 1 μM BpsB318-670 was incubated with 1-5 mg/mL of dPNAG in 100 mM HEPES pH 7.0 for 18 hours. The sample was split into two 20 μL aliquots and treated with DTT/3-Methyl-2-benzothiazolinone hydrazone hydrochloride hydrate and heated at 80° C. for 15 minutes. A solution of 0.5% (w/w) iron (III) ammonium sulfate dodecahydrate, 0.5% (w/w) sulfamic acid, and 0.25 N hydrochloric acid was added, mixed, and cooled to room temperature. […] Protein and dPNAG in buffer H were used as background controls.

[8] = tested on: PNAG-overproducing E. coli; assay: Inhibition of PNAG-dependent E. coli biofilm formation (crystal violet); conditions: read-out: EC50 of E. coli biofilm formation prevention, static 24 h at 26° C.
Method: In brief, PNAG-overproducing E. coli or S. carnosus was grown at 37° C. overnight in LB broth supplement with 200 μg/mL ampicillin and 100 μg/mL kanamycin, and 10 μg/mL tetracycline, respectively, with shaking at 200 rpm. Fresh cultures with antibiotic were prepared from the overnight culture using a 1:100 dilution, using LB broth for E. coli, and tryptic soy broth for S. carnosus. 95 μL of diluted culture was added to a sterile 96-well polystyrene round bottom microtiter plate and varying concentrations of protein (2 nM-5 μM) were added in 5 μL aliquots to give a final volume of 100 μL. The cultures were incubated statically for 24 h at 26° C. for E. coli, and 37° C. for S. carnosus, to allow for biofilm formation. To eliminate edge-effects, ˜200 μL of sterile water was placed in all outside wells and the plate was sealed with parafilm. After incubation non-adherent cells and media were removed by washing the plate with deionized water three times. The wells were stained with 150 μL of 0.1% (w/v) crystal violet for 10 min, and washed with water three times. The remaining dye was solubilized with 100 μL of 33% (v/v) acetic acid for 10 min with rotation, after which time the absorbance was measured at 595 nm using a SpectraMax M2 from Molecular Devices (Sunnyvale, Calif.). […] All reactions were completed in at least triplicates and buffer G was used as an untreated control. Either an E. coli pgaABCD knockout strain (DPGA) or S. carnosus treated with gentamycin, was used as a control for background straining.

A. fumigatus GAG biofilm = assay: Inhibition of GAG-dependent A. fumigatus biofilm formation (crystal violet); assay type: cell-based
[9] = Reducing sugar assay on purified GAG; assay type: biochemical, A. fumigatus; conditions: 10-20 μM protein, 26° C., 24 h
Method: Crude GAG was isolated from A. fumigatus biofilms. 200 μL GAG aliquots were centrifuged to pellet the gelatinous fraction. The pellets were washed twice with 350 μL PBS. The wash procedure included vortexing for 5 min, sonicated in a bath for 3 min, and manual mixing by pipetting to reach homogeneity. The final pellet was resuspended in 200 μL of PBS. Samples were treated with 10-20 μM protein and incubated at 26° C. Samples were taken at 24 h. GAG hydrolysis was quantified using a reducing sugar assay as described previously (Anthon & Barrett 2002) with slight modifications. Briefly, 20 μL of enzyme reaction was mixed with 20 μL of 0.5 M NaOH and 20 μL of MBTH/DTT solution (1.5 mg/L 3-methyl-2-benzothiazolinone hydrazine (MBTH) and 0.5 mg/L DTT). The samples were incubated at 80° C. for 15 min before the addition of 40 μL of acidic iron reagent (0.5% (FeNH4(SO4)2).12 H2O, 0.5% sulfamic acid, and 0.25 N HCl). Samples were diluted two-fold in water, before the absorbance was quantified at 620 nm.

[10] = tested on: A549 pulmonary epithelial cell line injured by A. fumigatus; assay: Chromium release epithelial cell damage assay; conditions: recombinant Sph3 hydrolases, up to 24 h
Method: The immortalized airway epithelial cell line A549 was loaded with chromium-51 by incubating monolayers grown in 24-well tissue culture plates with 3 mCi of ^51Cr at 37° C. in 5% CO2 for 24 h. Excess chromium was removed by washing with Hank's Balanced Salt Solution (HBSS). […] For testing germ tubes, conidia were grown for 7 h in SAB media at 37° C., then the fungus was collected and resuspended in DF12K media before 0.5 μM of hydrolase was added. The germ tubes were incubated with hydrolase for 1 h before being added to the A549 cells. After 16, 20 and 24 h of co-incubation, an aliquot of the medium above the cells was retrieved and replaced with fresh media. The cells were then lysed with 6 N NaOH and the lysate collected. The ^51Cr content of the medium and lysates was then measured in a gamma counter and the extent of epithelial cell damage was calculated as a function of the degree of ^51Cr release. Each strain was tested in triplicate, and all results were corrected for spontaneous chromium release by uninfected epithelial cells.
The methodology for prevention of epithelial cell damage caused by A. fumigatus using Sph352-298 is identical to that previously described in Example 19 for the use PelA47-303.

B1: PslG31-442: soluble PslG glycosyl hydrolase construct, residues 31-442, P. aeruginosa PAO1, SEQ ID NO: 11 (protein, listed as Pseudomonas aeruginosa)
chain: EIQVLKAPRAVVWKDFLGVNAQFLWFSPERYNKQIDRLQDLGLEWVRLDLHWDRLETAEDQYQLASLDQLVKDLEARQLKSVFYLVGSARFITTAPFYSPFQDQYPPRDPEVFARRMAMLSQRYPSVAAWQVWNEPNLIGFWRPKADPEGYAKLLQASTIALRMVDPEKPVVSAGMAFFSEMPDGRTMFDALGHLGVESLGTIATYHPYTQLPEGNYPWNLDFVSHANQINRALRNAGVPAIWSTEWGWSAYKGPKELQDIIGVEGQADYVLRRLALMSALDYDRIFLFTLSDLDQRASVRDRDYGLLDLDANPKPVYLALQRFLKVTGPKLRPADPPVTEDLPDGSFSIGWTREDGRNVWLFWSARGGNVRLPKLKEATLHDPLSGKVTPLSGSDGLEVPVKSSLQMLVWE
- effect on PAO1 growth ([1]; 10 μM enzyme): did not prevent PAO1 growth
- EC50 ([1]; PAO1 pBADpsl, static 24 h at 26° C., crystal violet): 4.1 ± 1.1 nM
- time to disperse pre-formed Psl biofilm ([2]; 58 nM enzyme): 30 min
- time to disperse / completely abolish pre-formed Psl biofilm ([2]; 86 nM enzyme): 35 min
- effect on pre-formed Psl biofilm ([2]; 86 nM enzyme, after 20 min): significant reduction of the biofilm
- concentration to which the protein could be concentrated [3]: 8000 to 10000 µg/mL
- dispersal of PNAG-dependent biofilms (in words) [4]: had no affect
- inhibition of Pel biofilm formation (in words) [5]: did not inhibit Pel biofilm formation; also recorded: unable at preventing biofilm formation

B2: GmetPelA23-277: PelA ortholog, residues 23-277, from Geobacter metallireducens, SEQ ID NO: 14 (protein, listed as Geobacter metallireducens)
chain: PPLSVALYYGKQPPVNDLHAFDIVVIDPDSGLTPSEYGSGRSELFAYVSVGEADTARSYTKQMPDRWIIGKNPVWKSKIVDVSSEEWKQFFLDDVVEPLWQAGYRGFFLDTLDSYLIAAPTEAHPRMEAGLVSVVRAIRQRHPEARLILNRGFEIFDRVKDLVYAVAAESLFQNFNTVSGKYGAVDDKDRSWLTSRLNVIRETGVPVIAIDYVDPGNRPLMRETADKIRSLGFTPWVTDKDLAGLGIGSVEVMPRTVLGLYDGGEGAG
- dispersal of pre-formed GAG biofilm (in words) [6]: less efficacious
- dispersal of pre-formed GAG biofilm (in words) ([6]; listed as GmPelA23-277): less effective at eliminating GAG biofilms

B3: PgaB310-672: PgaB C-terminal hydrolase domain residues 310-672, SEQ ID NO: 17 (protein, listed as Escherichia coli)
chain: EKSPQRIMHIDLDYVYDENLQQMDRNIDVLIQRVKDMQISTVYLQAFADPDGDGLVKEVWFPNRLLPMKADIFSRVAWQLRTRSGVNIYAWMPVLSWDLDPTLTRVKYLPTGEKKAQIHPEQYHRLSPFDDRVRAQVGMLYEDLAGHAAFDGILFHDDALLSDYEDASAPAITAYQQAGFSGSLSEIRQNPEQFKQWARFKSRALTDFTLELSARVKAIRGPHIKTARNIFALPVIQPESEAWFAQNYADFLKSYDWTAIMAMPYLEGVAEKSADQWLIQLTNQIKNIPQAKDKSILELQAQNWQKNGQHQAISSQQLAHWMSLLQLNGVKNYGYYPDNFLHNQPEIDLIRPEFSTAWYPKND
- dPNAG hydrolysis (in words) [7]: hydrolyze dPNAG
- concentration to which the protein could be concentrated [3]: 8000 to 10000 µg/mL
- EC50 [4]: 200 nM
- EC50 [8]: ~230 nM

B4: Sph352-298: soluble Sph3 residues 52-298, Aspergillus fumigatus Af293, SEQ ID NO: 20 (protein, listed as Aspergillus fumigatus)
chain: SKVFVPLYVYPAPGAWTPLEDVISKHPDVNFTVVINPGSGPGPNALPDGNYTREIPKLASYENVRLLGYVATTYAKRNISLVRRDIETYAAWPTNSSNPALAVRGIFFDETPQQYDEDALAYLQELTDVVKNTPGLGPDHYVVHNPGAIPDSRYLSTADSTVVFEATYDTFQERHGAKLFEAIPDSNRSQLCAVIHSVPESVEGSALRSLVKQVRKVADEIFITHLDTDYYASFGRQWPEFVDLMGK
- inhibition of A. fumigatus biofilm formation by recombinant Sph3 (in words) (A. fumigatus GAG biofilm): inhibit the formation of A. fumigatus biofilms in a dose dependent manner
- GAG hydrolysis, reducing ends (in words) [9]: number of reducing ends in solution increased
- activity against preformed biofilms of multiple A. fumigatus strains / clinical isolates [6]: dose-dependent activity; also recorded: active against multiple strains of A. fumigatus
- concentration sufficient at preventing GAG biofilm formation ([6]; FIG. 36, crystal violet): 280 nM
- dispersal of pre-formed GAG biofilm (in words) [6]: elimination of the GAG biofilms; also recorded: capable of disrupting GAG-dependent biofilms
- concentration to which the protein could be concentrated [3]: 8000 to 10000 µg/mL
- epithelial cell damage by A. fumigatus, chromium release [10]: reduced fungal damage to epithelial cells

B5: Sph3AN(43-299): Sph3 ortholog residues 43-299, Aspergillus nidulans FGSC A4, SEQ ID NO: 23 (protein)
chain: RRKNNNMGPKAKVFVPLYVYPAPGAWDPLVNVITAHPDVNFTVVVNPGSGPGPNPLPDRNYTQEIPRLTAHDNVRVLGYVATTYAKRNISSVRNDIETYAAWPTISANPKLAVRGIFFDETPQQYNASDLAYLEELTSVVKNTPGLGPDHFVFHNPGVVPDPRYLSTADSTVVFEATYDTFQDRDGARLFETIPNSNRSQLCAVVHSVPDSVEGSELRKFVKQARRVADEIFVTHLSTNYYASFGDKWDDFVRLMAQ
modifications: Aspergillus nidulans
- inhibition of A. fumigatus biofilm formation by recombinant Sph3 (in words) (A. fumigatus GAG biofilm): inhibit the formation of A. fumigatus biofilms in a dose dependent manner
- epithelial cell damage by A. fumigatus, chromium release [10]: completely protected epithelial cells from damage by A. fumigatus for 24 h
- epithelial cell damage by A. fumigatus, chromium release ([10]; listed as Sph3 from A. nidulans): reduced fungal damage to epithelial cells

B6: PgaB22-672: PgaB residues 22-672, E. coli K-12 MG1655, SEQ ID NO: 16 (protein, listed as Escherichia coli)
chain: ISQSRTSFIPPQDRESLLAEQPWPHNGFVAISWHNVEDEAADQRFMSVRTSALREQFAWLRENGYQPVSIAQIREAHRGGKPLPEKAVVLTFDDGYQSFYTRVFPILQAFQWPAVWAPVGSWVDTPADKQVKFGDELVDREYFATWQQVREVARSRLVELASHTWNSHYGIQANATGSLLPVYVNRAYFTDHARYETAAEYRERIRLDAVKMTEYLRTKVEVNPHVFVWPYGEANGIAIEELKKLGYDMFFTLESGLANASQLDSIPRVLIANNPSLKEFAQQIITVQEKSPQRIMHIDLDYVYDENLQQMDRNIDVLIQRVKDMQISTVYLQAFADPDGDGLVKEVWFPNRLLPMKADIFSRVAWQLRTRSGVNIYAWMPVLSWDLDPTLTRVKYLPTGEKKAQIHPEQYHRLSPFDDRVRAQVGMLYEDLAGHAAFDGILFHDDALLSDYEDASAPAITAYQQAGFSGSLSEIRQNPEQFKQWARFKSRALTDFTLELSARVKAIRGPHIKTARNIFALPVIQPESEAWFAQNYADFLKSYDWTAIMAMPYLEGVAEKSADQWLIQLTNQIKNIPQAKDKSILELQAQNWQKNGQHQAISSQQLAHWMSLLQLNGVKNYGYYPDNFLHNQPEIDLIRPEFSTAWYPKND
- dPNAG hydrolysis (in words) [7]: hydrolyze dPNAG
- EC50 [4]: > 1000 nM
- EC50 [8]: ~90 nM

B7: BpsB27-701: full-length BpsB residues 27-701, B. bronchiseptica RB50, SEQ ID NO: 18 (protein, listed as Bordetella bronchiseptica)
chain: YKVDMLPPPDPDDGLTFRVLCMHDVRDNLRASFADMPDQFAIETRTLTDLFEWIRVKGFNPISMQQIIDSRAGVRPLPPRPILLTFDDGYASTYTKVFPLLKKFNYPAVVAVVTSWTDAPAGTKIRLSPKIEVPHDFFMTWAQLREMAQSGLVELASHSHNLHRGVLANPQGNEQPAASSRQYLPASGRYENDAEYRARVRQDLKTSADLIREHTGVTIRSIVWPYGAHNRDTDQVAAEVGLNIGLTLQPGPNTPDVALTQIRRSLVDYEVNVATVARAMREPVSYHGQVRPIERIVQVDLDYIYDPDPEQQNRNLGQLIDRMKDLAPSAVYLQAFADPKGDGDITEVYFPNRHLPMRADLFNRVAWQLKTRAGVMVYAWLPVLTFSVPPGNPAYGKVVQSTTRKPGERGLGSPTRLSPFHPDAHRVISEIYEDLAKAAHFDGLLFHDDAVLDDTEDSSPEALATYQGWGLPPDIAAIRADPKLAQQWSKGKIRYLIDFTMHLRHIVSGYQNDRDMVVARNLYAQPVLDPVSEAWYGQSLPEFLKSYDFVALMAMPNMEGAARPEQWMRQLVAAVARQKGLDRTIFELQARDWRVGKPIDTEILRRQMVQLRSLGAINYGYYPDDFIANHPDAEALRDVMSLKSTLEKRRLTKAQELSRQTTLYGSASQAEPTQR
- dPNAG hydrolysis (in words) [7]: hydrolyze dPNAG
- EC50 [4]: ~170 nM
- EC50 [8]: ~40 nM
